# Source: the RNAGym collection of RNA variant scans (doi:10.7554/elife.80360)
# B1: HDV Ribozyme (parent)
# chain: GGCCGGCAUGGUCCCAGCCUCCUCGCUGGCGCCGGCUGGGCAACAUUCCGAGGGGACCGUCCCCUCGGUAAUGGCGAAUGGGACCCA
# Variants of: B1
# Experiment: self-cleavage, relative activity (ratio to wild type); higher = more cleavage; co-transcriptional
row,Variant,self-cleavage
1,G38C G40A,0.0978
2,G38U U60C,0.374
3,G38U U60G,0.13
4,G38U U60A,0.175
5,G38A C86A,0.247
6,G38A C86U,0.138
7,G38U C86U,0.241
8,G38A A87G,0.219
9,G38A A87C,0.0881
10,G38U G81U,0.0545
11,G38U C48U,0.141
12,G38U C48A,0.0978
13,G38A G55U,0.19
14,G38A G55A,0.0821
15,U37G U47A,0.158
16,U37G U47C,0.128
17,G38C G50C,0.35
18,G38C C61U,0.136
19,G38A U65A,0.273
20,G39A C84U,0.321
21,G39A C84A,0.415
22,G38A A43C,0.0449
23,G38U C44A,0.16
24,U37G U69G,0.0723

row,Variant,self-cleavage
1,U37G U69C,0.128
2,U37G U69A,0.119
3,G38C A56U,0.262
4,G38C A56C,0.181
5,G38C A56G,0.197
6,G38C G76U,0.47
7,G38C G76A,0.205
8,G38C G76C,0.122
9,G38A A78C,0.138
10,G38A A78U,0.0297
11,G38A A78G,0.0755
12,G38U A87C,0.231
13,G38U A87U,0.255
14,U37G U60G,0.0831
15,G39A G52A,0.405
16,G38C A45C,0.0678
17,G38C A45U,0.213
18,G38C A45G,0.227
19,G38A U79A,0.0831
20,G38C G54C,0.237
21,G38C G54A,0.132
22,G38U C61U,0.174
23,G38C G67C,0.157
24,G38C G67U,0.366

row,Variant,self-cleavage
1,G38C G67A,0.194
2,U37G G50U,0.135
3,U37G G50A,0.113
4,U37G G50C,0.185
5,G38U A43U,0.0963
6,G38C C62G,0.208
7,G38C C62A,0.354
8,G38A G74U,0.0934
9,G38A G74A,0.0755
10,U37G C44A,0.0791
11,U37G C44G,0.0692
12,U37G U46G,0.332
13,U37G U46A,0
14,G39A A43G,0.0707
15,G39A A43C,0.185
16,G39A C66G,0.437
17,G39A C66A,0.441
18,G38U U47A,0.109
19,U37G A71C,0.0831
20,U37G A71G,0.0594
21,U37G A71U,0.0594
22,G38C G73U,0.13
23,G38U A83C,0.0773
24,G38U A83U,0.0959

row,Variant,self-cleavage
1,U37G U72G,0.115
2,G38C A77G,0.0536
3,G38A C75U,0.0443
4,G38A C75G,0.0302
5,G38C C84A,0.18
6,G39A C85G,0.523
7,G38U G39A,0.0415
8,G38C A71C,0.231
9,G38U C64U,0.25
10,G38U C64G,0.177
11,G38U C64A,0.257
12,G38A G54A,0.273
13,G38C G53U,0.266
14,G38U U79C,0.112
15,G38U U79G,0.208
16,G38U U79A,0
17,G38C U60G,0.113
18,G38A A83U,0.13
19,G38C G39A,0.113
20,G38C G39U,0.0396
21,U37G A87C,0.0764
22,U37G A87U,0.148
23,U37G A87G,0.0455
24,G38C C58G,0.237

row,Variant,self-cleavage
1,G38C C58A,0.361
2,G39A C64A,0.458
3,G39A C64G,0.492
4,G39A C64U,0.484
5,G39A A45C,0.188
6,G38U G80U,0.0802
7,G38U G80A,0.102
8,G38U G80C,0.108
9,G38U G59U,0.284
10,G39A A71G,0.332
11,G39A A71C,0.332
12,G38A G76U,0.202
13,G38A G76C,0.0767
14,G38A G76A,0.112
15,G38U C62U,0.337
16,G38U U65A,0.292
17,U37G C48A,0.277
18,G39A A83U,0.185
19,G39A A83G,0.507
20,G38C G68C,0.193
21,G38C G68U,0.272
22,G38C G68A,0.172
23,G38A U69G,0.166
24,G38A U69A,0.148

row,Variant,self-cleavage
1,G39A A70U,0.496
2,U37G G55U,0.214
3,U37G G55A,0.0831
4,U37G G55C,0.141
5,G38C G52U,0.249
6,G38C G52C,0
7,U37G A78C,0.196
8,U37G A78U,0
9,G38C A42C,0.104
10,G38C A42U,0.208
11,G38A U60C,0.0272
12,G38A U60G,0.0386
13,G39A C41U,0.793
14,G39A C41G,0.228
15,G39A C41A,0.471
16,G38A G52U,0.245
17,G38U G40U,0.19
18,G38U G40A,0.222
19,G38C G82A,0.0594
20,G39A,0.51
21,G38U U69A,0.256
22,G38U U69G,0.272
23,G38U U69C,0.192
24,G38U A42U,0.261

row,Variant,self-cleavage
1,G38U A42G,0
2,U37G C41A,0
3,U37G C41G,0.332
4,U37G C41U,0.156
5,G38C C63U,0.194
6,G38U A77G,0.0923
7,G38A G73A,0.0875
8,G38A A45C,0.0804
9,G38A C41A,0.185
10,G38A C41U,0.354
11,G38C C64G,0.415
12,G38C C66U,0.153
13,G38C C85G,0.237
14,G38C C85A,0.0997
15,U37G C61U,0.138
16,G39A C61G,0.337
17,G38A G40C,0.138
18,G38A G40U,0.149
19,G38A G40A,0.262
20,U37G A83U,0.156
21,U37G A83C,0.0678
22,U37G A83G,0.138
23,U37G C75G,0
